Test: soluble on expression in E. coli; label from the status in PepcDB or PDB records

Row | Sequence | soluble on expression in E. coli
1 | MGSDKIHHHHHHMGVKSLVPQELIEKIKLISPGTELRKALDDIINANFGALIFLVDDPKKYEDVIQGGFWLDTDFSAEKLYELSKMDGAIVLSEDITKIYYANVHLVPDPTIPTGETGTRHRTAERLAKQTGKVVIAVSRRRNIISLYYKNYKYVVNQVDFLISKVTQAISTLEKYKDNFNKLLSELEVLELENRVTLADVVRTLAKGFELLRIVEEIRPYIVELGEEGRLARMQLRELTEDVDDLLVLLIMDYSSEEVEEETAQNILQDFITRREPSPISISRVLGYDVQQAAQLDDVLVSARGYRLLKTVARIPLSIGYNVVRMFKTLDQISKASVEDLKKVEGIGEKRARAISESISSLKHRKTSE | not soluble
2 | MSFVAYEELIKEGDTAILSLGHGAMVAVRVQRGAQTQTRHGVLRHSVDLIGRPFGSKVTCGRGGWVYVLHPTPELWTLNLPHRTQILYSTDIALITMMLELRPGSVVCESGTGSGSVSHAIIRTIAPTGHLHTVEFHQQRAEKAREEFQEHRVGRWVTVRTQDVCRSGFGVSHVADAVFLDIPSPWEAVGHAWDALKVEGGRFCSFSPCIEQVQRTCQALAARGFSELSTLEVLPQVYNVRTVSLPPPDLGTGTDGPAGSDTSPFRSGTPMKEAVGHTGYLTFATKTPG | soluble
3 | MGSDKIHHHHHHMKKIAILYPAHYEQSSGGAEIQILYLINACKQQNWEIHYIFEDKGTDIKNKENIVLHPLCKMKNYKFCGKGWFLYEKQILRELNAIKPDTIYTRIGSSWIGIATSYAKNHKVKHAHALASDSSVTRKLLGKPLYPLFSQIETYYINKGLVGADVIIAQNVFQQQMLSKRYGKESILVNQMTPSVDESCLQKKYNKIKIIWVANFKELKHPELFVQLAKDLKGHSDRIEMYMCGRSTSKYNNLLQDLNHIDYLNYLGSLDQEQVFDLMNEAHILVNTSEYEGFSNTFVQAWMRKVVVVSMNSNPSDILTSQGIGFLTPNMTNLVATIHKLIEHPEIISELGEKSYQYALENHDLNKNMKKIIEVL | not soluble
4 | MTRAERKRQHINHALSIGQKRETGLDDITFVHVSLPDLALEQVDISTKIGELSSSSPIFINAMTGGGGKLTYEINKSLARAASQAGIPLAVGSQMSALKDPSERLSYEIVRKENPNGLIFANLGSEATAAQAKEAVEMIGANALQIHLNVIQEIVMPEGDRSFSGALKRIEQICSRVSVPVIVKEVGFGMSKASAGKLYEAGAAAVDIGGYGGTNFSKIENLRRQRQISFFNSWGISTAASLAEIRSEFPASTMIASGGLQDALDVAKAIALGASCTGMAGHFLKALTDSGEEGLLEEIQLILEELKLIMTVLGARTIADLQKAPLVIKGETHHWLTERGVNTSSYSVR | soluble
5 | MDGTRTSLDIEEYSDTEVQKNQVLTLEEWQDKWVNGKTAFHQEQGHQLLKKHLDTFLKGKSGLRVFFPLCGKAVEMKWFADRGHSVVGVEISELGIQEFFTEQNLSYSEEPITEIPGTKVFKSSSGNISLYCCSIFDLPRTNIGKFDMIWDRGALVAINPGDRKCYADTMFSLLGKKFQYLLCVLSYDPTKHPGPPFYVPHAEIERLFGKICNIRRLEKVDAFEERHKSWGIDCLFEKLYLLTEK | not soluble
6 | MSIWQRVSFTHRFSQLPSAFYTLVEPQPLDNTRWVAWNGEFAQQFGLPAAQNDELLAVFSGQSEFEPFRPLAMKYAGHQFGVYNPDLGDGRGLLLAEIEHQNGTWFDIHLKGAGLTPYSRMGDGRAVLRSTIREYLCSEAMAGLGIPTTRALGMVVSDTPVYREKTEFGAMLIRMAETHVRFGHFEHLFYTNQLAEQKLLADKVIEWHFADCASAEKPYAAMFGEIVQKTADMIAYWQAYGFAHGVMNTDNMSILGQTFDYGPFGFLDDYEPGYICNHSDYQGRYAFEQQPRIALWNLSALAHALSPLVEREDLEQALSQFEGRLSQQFSRLMRSKLGLKTKIAEDGRLFESMFELLNQNHTDYTRFFRALSNLDKQPAQEVIDLFIDREAAQAWLDLYLARCELEVDEIGEPISAEQRSEQMRQTNPKYILRNYLAQLAIDKAEEGDFSEVHRLAEILRHPYDSQPEFEAYAKLPPEWGKKMEISCSSLEHHHHHH | not soluble
7 | MPKHIIDEIESLSLATGFILKNGDFTEEKSLLVKPTMGGTWHWSPIKGLHSQDSIRKTRAYILQEIARMTIYPEAGVSPTLRRKKGIVIGVARAVSTELYHIVENDLIEEEMDTAKLAVGYDGETIVIKNDVDSKWKEELSKPLNLSETENKVIQRLLLISHGVIPLQGYSLVTTSHHYNDKSKRAFSAVERQFFSRCDQLSWWKEDEEALRDAMWHKAGHPVKISFKKEIACSITIKQSLANAGIGSVACRLPATEDVVWKAEAYRNLLKTLSPIFDDEVKWEALDEMLSYLNHFSAARPTEVVTVHNAPTHLMSLDTREKVVTWIAQWCSQNAEKVAICLGFHTALLENAGKFPGPSYSLMVLRTNVDSYILGTKLFSDYTVFKAKLRQLMDSVS | soluble
8 | MKKIAIFAGDGIGPEIVAAARQVLDAVDQAAHLGLRCTEGLVGGAALDASDDPLPAASLQLAMAADAVILGAVGGPRWDAYPPAKRPEQGLLRLRKGLDLYANLRPAQIFPQLLDASPLRPELVRDVDILVVRELTGDIYFGQPRGLEVIDGKRRGFNTMVYDEDEIRRIAHVAFRAAQGRRKQLCSVDKANVLETTRLWREVVTEVARDYPDVRLSHMYVDNAAMQLIRAPAQFDVLLTGNMFGDILSDEASQLTGSIGMLPSASLGEGRAMYEPIHGSAPDIAGQDKANPLATILSVAMMLRHSLNAEPWAQRVEAAVQRVLDQGLRTADIAAPGTPVIGTKAMGAAVVNALNLKD | soluble
9 | MRTALLQNLFSLFPFDLHGDCDVPPARDGIRVSCIINFYGRLNVLAGILWSLAQQDFPRSAFEVILVEDRGGSDEGRALAEEFSSRLPIVYAPLDKQYGLMGYSRNFGLERSRGEFILFLDDDTIILQDDFLKTMVAYFDAQPGVSAIMPHGEASFAFVDDRYDFHDPFFMTSRCTAYRRTVLASLGGFMSSFIGQEDVEFVIRFHAAGNRCAAVPQLAYRHPPLYVTNLGKPMAVGSSFYGIRKRYPLVTWLLAVVNCSRHLPLVLAPSRKYREMGRFGLGFLWGVLTAPFRSGSLNYRLEHHHHHH | not soluble
10 | MKVAIVHNSEEKSKQVTKQLTTLLEQNQIQIDNRQPELVISVGGDGTLLSAFHRFNHLLNEVSFLGVHTGHLGFYTDWRDYELKELVESLCIHREKSTSYPLLDVRIRFRDGKPDKHFLALNESTIKRGNRTMVGDVFIKDELFERFRGDGLSISTPTGSTAYNKSIGGAVLHPSINAFQLTEIASLNNRVFRTLGSPIVIAHTEWLEIKLQESDDYFVTVDQLDIYQENIASVCYRIADERIHFASYRHMHFWHRVKDAFIGEDLEHHHHHH | soluble
11 | MGSDKIHHHHHHMPLERLNFLGLRNLAALDMRPGPGINLITGANGSGKTSLLEGMHVLGMARSFRTQKLKHAIAHDADAVTLHGRVAGDPPVALGVRRARDASELEIRLDGERGVRVARLAEALPLQLINPDAFRLLEGSPAARREFLDWGVFHVKHEFFEAWRRVRRALKHRNALLRHDRIDARSMRVWEQELAHWSELLDALRSEYMAQFAKAFEDTLHELLPLSGLSLRYYRGWDKQRGLLEVLEGGRDTDRQMGFTQQGPQRADLRLRIGKRAAVEELSRGQQKLVVSALKLAQGRLLDELTGRTCVYLIDDLPAELDVTHRRIFCHWLERLRCQVFITSVEREALANAWQSETDVAMFHVEHGRLLTE | not soluble
12 | MAATQEEIVAGLAEIVNEIAGIPVEDVKLDKSFTDDLDVDSLSMVEVVVAAEERFDVKIPDDDVKNLKTVGDATKYILDHQA | soluble
13 | MTARYIAIDWGSTNLRAWLYQGEECLESRQSEAGVTRLNGRSPAAVLAEITQHWRDGATPVVMAGMVGSNVGWKIAPYLPLPAAFSDIGQQLTAVGDNIWIIPGLCVSRDDNHNVMRGEETQLLGARALAPSSVYVMPGTHCKWVLADRRQIHDFRTVLTGELHHLLLQLSLVGAGLPPQETSAAAFAAGLQRGINNPAVLPQLFEVRASHVLGALPREQVSEFLSGLLIGAEVATLSDTFAGQQAISLVAGSSLTSRYQQAFAAIGREVSAVAGDTAFQTGIRSIAYAVAN | soluble
14 | MKPYDLSEAVAVVTGGSSGIGLATVELLLEAGAAVAFCARDGERLRAAESALRQRFPGARLFASVCDVLDALQVRAFAEACERTLGCASILVNNAGQGRVSTFAETTDEAWSEELQLKFFSVIHPVRAFLPQLESRADAAIVCVNSLLASQPEPHMVATSAARAGVKNLVRSMAFEFAPKGVRVNGILIGLVESGQWRRRFEAREERELDWAQWTAQLARNKQIPLGRLGKPIEAARAILFLASPLSAYTTGSHIDVSGGLSRHA | soluble
15 | MEKLSSSSHFLDLGGLDNLRAQAQKDEKGALKKVAQQFEGVFVQMLMKSMRDANAVFESDSPLNSQYTKFYEQMRDQQLSVDLSDKGVLGLADMMVQQLSPESSPFTPASVLRNDGGMKLEHDAKALNIPTQTPSTAEAESANTPVVVAHGVPASIARPSVEFEDNNGVTSSLDIDRPQRLLAIDTPKPTWSEQPLSAIEPVISGQILPTVAFRETQKTLKFGSREEFLATLYPHAEKAAKALGTKPEVLLAQSALETGWGQKIVRGHNGAPSHNLFNIKADRRWQGDKANVSTLEFEQGIAVRQKADFRVYNDFDHSFNDFVSFIADGERYQDAKKVAASPTQFIRALQEAGYATDPKYAEKVIKVMQSISEELKSILPGEDK | not soluble
16 | MISTPPVARNIMRCMSDQLKLDQQICFQLYTGSRLMQRMYRVYFDQWGITYSQYLVLLLLWEKDRQTISELSDPLDLDSGTLSPLLRRMEANGFITREHEQSDYRKVVVCLTTRGRRLKTKAKKMNDELNDMLGFDDADLAAVTRVLEKINPSAAI | not soluble
17 | MRDTRGGDQGGGLEAQGGAEARNALPPETIVLILPWEPGSRRQPLKAGQVILKWGGYTMPYLVGPKGQVVIAKEIRERLGIRPGWRVIQRLVDDHVELYFLPPPHKASLKGLLRDKIRGTVSEEAWAEARERAWRASWSEEGEG | soluble
18 | MFALIQRGQIYTDRAGYPVEITRSTEHSVFFRRMDGRTGRVRIGEFSSLFEHIDHLEYHKILAETEQEKHLKKLRAMQRK | not soluble
19 | MSKATTPGDQPKVSEMDFYQLLGVEKMASEAEIKSAYRKLALKYHPDRNPNDAHAQEEFKKVSIAYSVLSDPNKRRQYDVSGPSENQLDFEGFDVSEMGGVGRVFGALFSKLGVPIPTQIVPKVLAQARHICMGQECDVQARQLPPGETVTSSVSKQHAHFYEINIQEEHRKNGVAIICKSSSSKFKLVLFDKEGGVRMIQESGKRGKAGTQADMFFVPYNVANIQEFNAMKYHLEDKETPLAFHYLDSFEMQTATLLETRKHYIAVYGDNWISDVKYSITFLPVEPSAVEQLNEIQDTEKSISIIKKEMLDFQREFTEAKRKYDEAVAKLKVQDDTILKALAHREELYNEVLQKSQEPYNKKVSPSKSSGGLLGWFK | not soluble
20 | MSRKKFMESVGATCSNWNWSWSFVNHEERFVVFGHWDVHKDGLIFDESWKGPGRKQSLEHISLIQNNGYRLKTFPMQYDQTETGTAKIKSFDWILEEKHLAGVDGLWYALNYSESVDITSIEEVVHPETYIEGATKEISVNAYERNPDARAKCILHYGCKCYVCKFDFQEVYGDIGKGFIHVHHEVSLAEIKKEYSVDPIKDLKPLCPNCHGIIHRTHPPISVDSLINLLRSRNLEHHHHHH | soluble
